Data reported in the supplement of paper PMC12042874.
± gives the uncertainty stated by the source.

assay: amyloid nucleation score (Sup35N fusion, yeast selection) (log enrichment); library NNK3; higher = more nucleation; inactive = no reads after selection
Method in brief: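 The nucleation score equals the log enrichment of output over input reads from DiMSum, centred on the mode score of non-aggregating sequences. It was computed only for sequences with 100 or more input reads. The reads came from Illumina sequencing of plasmid inserts from psi-negative yeast expressing Sup35N fused to peptides of 20 random codons, induced with 100 μM copper sulfate for 24 hours and grown 7 days at 30°C without adenine and uracil.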

Row | Substance | amyloid nucleation score
1 | TKVFVLHSYDCTIKTSGFNS | inactive
2 | TKWANR | inactive
3 | TKYFRSNNPFHLVYTYIYLT | inactive
4 | TLASTGYFFR | inactive
5 | TLDAILNLHTS | inactive
6 | TLDINMNLRSLYVGQHYADI | inactive
7 | TLDPNIHESFFSAACWYSKA | inactive
8 | TLFQDSLLYVSWRSES | 0.118 ± 0.34
9 | TLGIWRDYSYKTILRRWDDR | inactive
10 | TLGVRIHCGEFNLYDHSRVK | 0.875 ± 0.26
11 | TLHWCMVSNHRAKCYCLFET | 0.472 ± 0.42
12 | TLIFFDKDYYCGVRQMWNVG | inactive
13 | TLIRRVYVRRFYTGIEVGST | inactive
14 | TLLDVPRSRLWSKFWLCVQL | inactive
15 | TLLFSIYCIFLNPSVQRRFE | -0.028 ± 0.43
16 | TLLPLQMFTNHWALMPSSHR | 0.125 ± 0.9
17 | TLLRLHQVAY | inactive
18 | TLLVCNMWNFSRNIMVHIGV | inactive
19 | TLLYERNEYVVRNTYWDICL | inactive
20 | TLLYTI | inactive
21 | TLNVVPR | inactive
22 | TLSCDRKNCVVHCFLIQRFL | inactive
23 | TLSCTKVTP | inactive

Row | Substance | amyloid nucleation score
24 | TLSIEMGQLDRERVGLNCKR | inactive
25 | TLSVLFSVSAAAFGVHRIQD | 1.09 ± 0.21
26 | TLSYRMFINKPSGMMCEHFN | 1.05 ± 0.11
27 | TLVRTDPRGTVSPPTFPCEW | inactive
28 | TMCCACVFLSSSGWEFNYGL | 2.35 ± 0.081
29 | TMKIMFVEPWKCRAAFQL | inactive
30 | TMNAICLNPVS | inactive
31 | TMSLFTTSVCCWTKGAIRHS | inactive
32 | TMVFILQMLV | 1.47 ± 0.097
33 | TMVYPKIPGGRTLAWDMTGR | inactive
34 | TNANFATDSHFLVITE | inactive
35 | TNIYKARL | inactive
36 | TNKRTYFWVF | 1.02 ± 0.097
37 | TNLACWVTFCPNCMMLDYLG | 2.21 ± 0.064
38 | TNNTKERYIHLSFMTKWWTF | inactive
39 | TNQALTMNCHPG | inactive
40 | TNTFYDHTNFMIVGLVPVRY | inactive
41 | TNYRYSFGISYS | inactive
42 | TPDFVRSRKMNWVAIKKRAE | inactive
43 | TPFSCEYNIMWESRGGDWSR | inactive
44 | TPFTFGCHRLLQHKYCNSDV | inactive
45 | TPKFLSMLIRTHSSPVRTHL | inactive
46 | TPLGSQLALESDFFYTPNRC | inactive

Row | Substance | amyloid nucleation score
47 | TPMWMGT | inactive
48 | TPSRREMDVCVFFSPFAMHM | 0.896 ± 0.095
49 | TPYVTGTTEAVKMQHRCNVD | -0.188 ± 0.87
50 | TQDCG | inactive
51 | TQLNTFYSVITSSFMIDFC | inactive
52 | TQNGVCYRNPVFYGRRARKL | inactive
53 | TQNNNGRVETPGASTPKHPC | inactive
54 | TQWYS | inactive
55 | TRFLCSGV | inactive
56 | TRITMASSREV | inactive
57 | TRLGYKKGFFMTSSSHRLMV | inactive
58 | TRNPDKLCANVLDNRH | inactive
59 | TRPGLKWWVLRRMRHFGRRV | inactive
60 | TRVLSINRNTPANRLIGVGC | inactive
61 | TRVSWTFGINTSSGPSALHL | 0.995 ± 0.13
62 | TRWSVFKLRADDRNMQASKS | inactive
63 | TSDIDIY | -0.397 ± 0.73
64 | TSFFNNFSLLFVLVWNVLRG | inactive
65 | TSGHVVTMEHRLLYVPTIGF | inactive
66 | TSGKGFYMLSVGVRVYQWDI | inactive
67 | TSHPYNHVESSG | 0.972 ± 0.095
68 | TSKLRQCGFL | inactive
69 | TSLFGIPQCRFRVRSWNDVV | inactive

Row | Substance | amyloid nucleation score
70 | TSLGFSLSSSTDAFVEKFEG | 1.56 ± 0.077
71 | TSLSRHTIPYNHVLYSTWW | inactive
72 | TSLWRLL | inactive
73 | TSMRKSACSWTLFSLR | inactive
74 | TSTGYNPIYYIMMFN | 0.677 ± 0.32
75 | TSTHCIIWLGRSDRRREMQL | -0.752 ± 1.9
76 | TSVNVWFPFLGVREGFGCSP | 1.37 ± 0.15
77 | TTCAVCRCIRGAMFNGSVSK | inactive
78 | TTCFTHGKLPNIRAWSIWTQ | inactive
79 | TTEDLSVG | inactive
80 | TTFNRFVYPYGERYLG | inactive
81 | TVGGFAWLDNSLSDRMFDTS | inactive
82 | TVICELRNMRYS | 1.81 ± 0.087
83 | TVIKPWLLICCDLFREVGFA | 1.12 ± 0.14
84 | TVIRRLYCLNGLVANTSFAV | inactive
85 | TVKYHGSPCVLHDLLIVERR | inactive
86 | TVLLIGNMWTYWAYMQCSWG | inactive
87 | TVRGYRLAHYIAAGYSCMSR | inactive
88 | TVSGNKYISDRVQN | inactive
89 | TVSIRIINT | 0.15 ± 0.66
90 | TVSKCSERRVCTPGDSCVAC | inactive
91 | TVVDLVIFG | inactive
92 | TVVVGLVGF | 0.825 ± 0.2

Row | Substance | amyloid nucleation score
93 | TWCAHS | inactive
94 | TWKQDWDNFSYVLNSSSHST | inactive
95 | TWLFFRNHTQAFCSYLAHWG | inactive
96 | TWLIGHGAVIVRLYNFYMAI | inactive
97 | TWQVVNSPYPMRNIPYRSRW | inactive
98 | TWSMNIIMCLNRQVDQGFSL | 1.82 ± 0.075
99 | TWVVYFVVRMCVQGSVYSMA | inactive
100 | TWWSLGSVELVLWFKSCCDF | 1.44 ± 0.083
101 | TWWWDTKLVRRPCSRGWVTC | inactive
102 | TWYRCD | inactive
103 | TYCSYTL | inactive
104 | TYEGITVVTFVSYSYAIREP | 0.703 ± 0.096
105 | TYFYSIIYYIYGYVFLRRAY | -0.346 ± 0.8
106 | TYLCFYTKRPDAVYWSTLDH | inactive
107 | TYMFMVAYNVSTRPRKLLNC | inactive
108 | TYMPAVIIYRVLQAMTAAHH | inactive
109 | TYRSTLSVSMAVRGSEMLD | -0.085 ± 1
110 | TYVGV | inactive
111 | TYVRIGVCGVLWFCTFFTQC | inactive
112 | VACHRS | inactive
113 | VADRVSSK | inactive
114 | VAEEHSVLSCQDADFCASSL | inactive
115 | VAFTLDGKARDKYRNGDHNK | inactive

Row | Substance | amyloid nucleation score
116 | VAFTLIVRFCS | inactive
117 | VAIGYIASVLK | inactive
118 | VALAVMQKLNMRYIYNPCFV | inactive
119 | VAMVSGIG | inactive
120 | VARISYLEIHNGETNFTYWF | 2.47 ± 0.062
121 | VARNGDLF | inactive
122 | VASVWLDIPMYLFSQLRTKT | inactive
123 | VATHTSASHLRS | inactive
124 | VAYRTGSDG | inactive
125 | VCAGNTDPWSQELIPYRKC | inactive
126 | VCASIGCRTGD | inactive
127 | VCDTM | inactive
128 | VCFFRVKRSYSNIFYTRRCR | inactive
129 | VCFNYDLFYMIRMGFEAVHI | inactive
130 | VCGIYYVFLAGWEHKSRSKE | 1.86 ± 0.089
131 | VCGNMVSLVVHPFLFSYVCD | inactive
132 | VCIRTFLSLVSDCNACWSQL | inactive
133 | VCLLNWFWIYDQYVRQLTVV | inactive
134 | VCLWTVDLRIVTEGLGSHRG | inactive
135 | VCVKPLCFLAHMYGKC | inactive
136 | VCYDVCGRGWTCQY | -0.011 ± 0.42
137 | VCYVKYSSLLCMNLGIRHRT | inactive
138 | VDDIPYRFKTIKTTG | inactive

Row | Substance | amyloid nucleation score
139 | VDFYLR | inactive
140 | VDHSLVWDHWTLRDIPCKTG | inactive
141 | VDLWYIFGPSPYATCFVLLV | inactive
142 | VDQHGFATKGPVLSKVIGHS | inactive
143 | VDRDSWSVPFCALQKHRMQK | inactive
144 | VDRVT | inactive
145 | VDTILSNKVYVRAPPKRGSK | inactive
146 | VEALILSVRKCVFGLPVPAL | inactive
147 | VECSIVLCII | 2.26 ± 0.051
148 | VEKCKLLFVTTHECLCHCSR | inactive
149 | VETSCGRMHVLHLTGSGYSM | inactive
150 | VFAFTKMESRFLLGLRVDEY | 0.729 ± 0.15
151 | VFETEKLSHFKCEVLDCQ | inactive
152 | VFFETNVMGQEWYGGHVKR | inactive
153 | VFHRSSLNSSRAGWH | inactive
154 | VFKFVLLSLYMFQWGNAFPM | inactive
155 | VFLKTVAKQFCLANVKRSH | inactive
156 | VFLNWRGMNHSLRAFNIESQ | inactive
157 | VFLPGRSIKWFLMAEKLRNH | inactive
158 | VFLSCSCRWMVYGYNLTADC | inactive
159 | VFLSWCAGSKGFSGVCRI | 0.6 ± 0.2
